B1: Receptor-interacting serine/threonine-protein kinase 3 (Homo sapiens), Q9Y572 (parent)
chain: MSCVKLWPSGAPAPLVSIEELENQELVGKGGFGTVFRAQHRKWGYDVAVKIVNSKAISREVKAMASLDNEFVLRLEGVIEKVNWDQDPKPALVTKFMENGSLSGLLQSQCPRPWPLLCRLLKEVVLGMFYLHDQNPVLLHRDLKPSNVLLDPELHVKLADFGLSTFQGGSQSGTGSGEPGGTLGYLAPELFVNVNRKASTASDVYSFGILMWAVLAGREVELPTEPSLVYEAVCNRQNRPSLAELPQAGPETPGLEGLKELMQLCWSSEPKDRPSFQECLPKTDEVFQMVENNMNAAVSTVKDFLSQLRSSNRRFSIPESGQGGTEMDGFRRTIENQHSRNDVMVSEWLNKLNLEEPPSSVPKKCPSLTKRSRAQEEQVPQAWTAGTSSDSMAQPPQTPETSTFRNQMPSPTSTGTPSPGPRGNQGAERQGMNWSCRTPEPNPVTGRPLVNIYNCSGVQVGDNNYLTMQQTTALPTWGLAPSGKGRGLQHPPPVGSQEGPKDPEAWSRPQGWYNHSGK
partner: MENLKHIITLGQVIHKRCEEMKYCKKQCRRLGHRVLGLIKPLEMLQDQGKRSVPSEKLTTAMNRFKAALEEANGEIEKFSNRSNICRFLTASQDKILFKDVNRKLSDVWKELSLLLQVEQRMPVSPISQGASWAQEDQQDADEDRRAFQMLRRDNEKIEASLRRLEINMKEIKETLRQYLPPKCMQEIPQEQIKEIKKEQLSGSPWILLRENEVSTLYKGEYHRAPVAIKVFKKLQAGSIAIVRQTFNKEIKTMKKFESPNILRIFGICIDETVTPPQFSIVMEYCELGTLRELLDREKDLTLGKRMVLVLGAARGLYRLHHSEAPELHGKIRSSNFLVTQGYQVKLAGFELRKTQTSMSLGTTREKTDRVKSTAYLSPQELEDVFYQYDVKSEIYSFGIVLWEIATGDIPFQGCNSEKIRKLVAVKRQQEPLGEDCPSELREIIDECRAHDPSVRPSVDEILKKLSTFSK
B2: Mixed lineage kinase domain-like protein (Homo sapiens), Q8NB16 (parent)
chain: B1 partner

Variants of: B1
Details: with mlkl_human MLKL

Row | Variant | effect of a mutation on the interaction
1 | S227A | disrupting interaction
2 | D142N | disrupting interaction

Variants of: B1
Details: with mlkl_human MLKL
Remark: another data set of the same source

Row | Variant | effect of a mutation on the interaction
3 | K50A | decreasing interaction

Variants of: B2
Details: with ripk3_human RIPK3, Q9Y572

Row | Variant | effect of a mutation on the interaction
4 | MENLKHIITLGQVIHKRCEEMKYCKKQCRRLGHRVLGLIKPLEMLQDQGKRSVPSEKLTTAMNRFKAALEEANGEIEKFSNRSNICRFLTASQDKILFKDVNRKLSDVWKELSLLLQVEQRMPVSPISQGASWAQEDQQDADEDRRAFQMLRRDNEKIEASLRRLEINMKEIKETLRQYLPPKCMQEIPQEQIKEIKKEQLSGSPWILLRENEVSTLYKGEYHRAPVAIKVFKKLQAGSIAIVRQTFNKEIKTMKKFESPNILRIFGICIDETVTPPQFSIVMEYCELGTLRELLDREKDLTLGKRMVLVLGAARGLYRLHHSEAPELHGKIRSSNFLVTQGYQVKLAGFELRKTQAAMSLGTTREKTDRVKSTAYLSPQELEDVFYQYDVKSEIYSFGIVLWEIATGDIPFQGCNSEKIRKLVAVKRQQEPLGEDCPSELREIIDECRAHDPSVRPSVDEILKKLSTFSK [T357A;S358A] | disrupting interaction
5 | MENLKHIITLGQVIHKRCEEMKYCKKQCRRLGHRVLGLIKPLEMLQDQGKRSVPSEKLTTAMNRFKAALEEANGEIEKFSNRSNICRFLTASQDKILFKDVNRKLSDVWKELSLLLQVEQRMPVSPISQGASWAQEDQQDADEDRRAFQMLRRDNEKIEASLRRLEINMKEIKETLRQYLPPKCMQEIPQEQIKEIKKEQLSGSPWILLRENEVSTLYKGEYHRAPVAIKVFKKLQAGSIAIVRQTFNKEIKTMKKFESPNILRIFGICIDETVTPPQFSIVMEYCELGTLRELLDREKDLTLGKRMVLVLGAARGLYRLHHSEAPELHGKIRSSNFLVTQGYQVKLAGFELRKTQEDMSLGTTREKTDRVKSTAYLSPQELEDVFYQYDVKSEIYSFGIVLWEIATGDIPFQGCNSEKIRKLVAVKRQQEPLGEDCPSELREIIDECRAHDPSVRPSVDEILKKLSTFSK [T357E;S358D] | decreasing interaction

Source: IntAct's records for PubMed 22265413
